As a reminder, the Kd is a measure of binding affinity in units of concentration. A higher Kd goes with lower affinity.

The nature of experiment [1]: TR-FRET retinol binding assay of mRBP4 proteins. Conditions: retinol binding affinity, Cy5-labeled retinol. Here is the method:
The binding affinities of mRBP4 proteins were determined by a TR-FRET retinol binding assay.
WT and pNO2Phe mRBP4 mutant proteins were labeled with biotin using the Sulfo-NHS-Biotin kit (Pierce, Rockford, Ill.) according to manufacturer instructions. For determination of retinol binding activity, 10 nM biotin-labeled RBP4 was mixed with 1 nM Streptavidin-Europium chelate (LANCE® Eu-W8044 Streptavidin, Perkin Elmer, Foster City, Calif.). Increasing concentrations of Cy5-labeled retinol were added to the reaction and retinol binding was assessed by homogeneous time-resolved fluorescence resonance energy transfer (TR-FRET).
In general terms: TR-FRET usually uses a lanthanide donor and a delayed reading to cut background.

A further experiment concerns the target T1, mRBP4 (Mus musculus, UniProt Q00724).
T1 construct: The cDNA encoding murine RBP4 (aa 19-201); made in house; host or cells: E. coli BL21(DE3)
Kind of experiment: Serum IgG titers by ELISA after RIMMS immunization of mice with mRBP4 variants. The class given is in vivo. The protocol: 30 μl of 0.5 μg/ml protein was used to coat the wells of Maxisorp 384-well plates (Nunc, Rochester, N.Y.) overnight at 4° C. After washing with PBS+0.05% Tween 20 (PBST), the coated plates were blocked with 80 μl of 1% BSA in PBS, and washed again with PBST. The plates were sequentially incubated with 20 μl of primary antibody or serum diluted in 1% BSA in PBS, 20 μl of HRP-conjugated goat anti-mouse IgG or anti-mouse IgM (Jackson ImmunoResearch Laboratories, West Grove, Pa.), and 20 μl of TMB substrate (KPL, Gaithersburg, Md.), and read at an absorbance of 650 nm. Between incubations, the plates were washed at least six times with PBST.
Before measurement, serum samples were diluted 1:1,000 with 1% BSA in PBS buffer.
On the technique in general: An ELISA detects its analyte on a solid surface through an enzyme-linked reagent.

“WT mRBP4: wild-type murine retinol binding protein 4” gave a Kd in experiment [1] of 171 nM. For the same substance, the “serum IgG titers against WT mRBP4” value with mRBP4 (Bcl2 mice, RIMMS, ELISA (FIG. 19)) is listed as “insignificant serum IgG titers”; with mRBP4 (C57BL/6 mice, ELISA (FIG. 26)) it was “insignificant serum IgG titers”.

For the origin of these results see patent publication US20110052525A1, “Breaking Immunological Tolerance with a Genetically Encoded Unnatural Amino Acid” (THE SCRIPPS RESEARCH INSTITUTE, priority 2008, published 2011).
